Assay results from publication PMC3741208.

Experiments:
[1] = biological target: bovine α-thrombin (bovine)
[2] = biological target: bovine α-thrombin (bovine); experiment: enzyme inhibition kinetics (chromogenic substrate); 1 nM bovine α-thrombin, 0-200 µM Tos-Gly-Pro-Arg-p-nitroanilide, 0-800 nM madanin; 37 °C, 50 mM Tris-HCl pH 8.0, 50 mM NaCl, 1 mg/ml bovine serum albumin; fitted to the competitive inhibition model

Question: Which results are given for madanin-2 fragment 22-55 (peptide)?
Answer: inhibition of thrombin amidolytic activity (%), 1 nM thrombin, 50 µM Tos-Gly-Pro-Arg-p-nitroanilide, 1 µM fragment, after 120 min [1]: 6.11%; prolongation (fold) of thrombin time of human plasma, 10 µM fragment (18 s against 17 s); competition with fibrinogen for thrombin; species of the assay's thrombin not stated (human α-thrombin (human)): 1.06 fold

Question: Which inhibition of thrombin amidolytic activity (%), 1 nM thrombin, 50 µM Tos-Gly-Pro-Arg-p-nitroanilide, 1 µM inhibitor, after 120 min [1] does the source give for “madanin-1 (mature, recombinant) (natural protein)” here?
Answer: 43.8%

Question: And the Ki [2]?
Answer: 55.6 nM

Question: What does the source list for madanin-1 fragment 1-21 (peptide)?
Answer: inhibition of thrombin amidolytic activity (%), 1 nM thrombin, 50 µM Tos-Gly-Pro-Arg-p-nitroanilide, 1 µM fragment, after 120 min [1]: 4.6%; prolongation (fold) of thrombin time of human plasma, 10 µM fragment (17 s against 17 s); competition with fibrinogen for thrombin; species of the assay's thrombin not stated (human α-thrombin (human)): 1 fold

Question: Which inhibition of thrombin amidolytic activity (%), 1 nM thrombin, 50 µM Tos-Gly-Pro-Arg-p-nitroanilide, 1 µM fragment, after 120 min [1] does the source give for madanin-2 fragment 1-21 (peptide) here?
Answer: 5.83%

Question: What about the prolongation (fold) of thrombin time of human plasma, 10 µM fragment (18 s against 17 s); competition with fibrinogen for thrombin; species of the assay's thrombin not stated (human α-thrombin (human)) of the same substance?
Answer: 1.06 fold

Question: What does the source list for “madanin-2 (mature, recombinant) (natural protein)”?
Answer: inhibition of thrombin amidolytic activity (%), 1 nM thrombin, 50 µM Tos-Gly-Pro-Arg-p-nitroanilide, 1 µM inhibitor, after 120 min [1]: 47.2%; Ki [2]: 31.6 nM

Question: How did the prolongation (fold) of thrombin time of human plasma, 10 µM fragment (17 s against 17 s); competition with fibrinogen for thrombin; species of the assay's thrombin not stated (human α-thrombin (human)) turn out when madanin-2 fragment 56-61 (peptide) was run?
Answer: 1 fold

Question: For madanin-1 fragment 55-60 (peptide), which prolongation (fold) of thrombin time of human plasma, 10 µM fragment (17 s against 17 s); competition with fibrinogen for thrombin; species of the assay's thrombin not stated (human α-thrombin (human)) is on record?
Answer: 1 fold

Question: Which results are given for madanin-1 fragment 22-54 (peptide)?
Answer: inhibition of thrombin amidolytic activity (%), 1 nM thrombin, 50 µM Tos-Gly-Pro-Arg-p-nitroanilide, 1 µM fragment, after 120 min [1]: 5.77%; prolongation (fold) of thrombin time of human plasma, 10 µM fragment (20 s against 17 s); competition with fibrinogen for thrombin; species of the assay's thrombin not stated (human α-thrombin (human)): 1.18 fold
